Experimental data reported in US7375083B2, “Pharmaceutical compositions for prevention of overdose or abuse” (Shire LLC, priority 2003, dated 2008).
Where a SMILES comes first, the peptide text is derived from it. The star is where a group is joined. X1 = COc1ccc2c3c1O[C@H]1C(O*)=CC[C@H]4[C@@H](C2)N(C)CC[C@]314

Tests used:
[1] = Intranasal bioavailability of hydrocodone conjugates in rats, LC/MS/MS; conditions: intranasal, 1 mg/kg dose; for AUC (ng/ml h) 0-1 h / Cmax: hydrocodone plus hydromorphone; for Percent HC (AUC) / Percent HC (Cmax): relative to hydrocodone bitartrate
[2] = Oral bioavailability of hydrocodone conjugates in rats, LC/MS/MS; conditions: for Percent Decrease 1 mg/kg vs. 5 mg/kg AUC / Percent Decrease 1 mg/kg vs. 5 mg/kg Cmax: oral bioavailability; for hydrocodone plus hydromorphone concentration / AUC (ng/ml h) 0-8 h / Cmax / Percent HC (AUC) / Percent HC (Cmax) / Peak levels and bioavailability: oral; for AUC (ng/ml h) 0-8 h / Cmax: hydrocodone plus hydromorphone; for Percent HC (AUC) / Percent HC (Cmax): relative to hydrocodone bitartrate; for Peak levels and bioavailability: rat, 5 mg/kg
[3] = Oral pharmacokinetics in rats, plasma d-amphetamine by ELISA; conditions: Oral, relative to amphetamine (first value where two are given)
[4] = Intravenous bioavailability of hydrocodone conjugates in rats, LC/MS/MS; conditions: intravenous, 1 mg/kg dose; for AUC (ng/ml h) 0-1 h / Cmax: hydrocodone plus hydromorphone; for Percent HC (AUC) / Percent HC (Cmax): relative to hydrocodone bitartrate

With `CC[C@H](C)[C@H](NC(=O)[C@H](CC(=O)O)NC(=O)[C@@H](N)CC(=O)O)C(=O)OC1=CC[C@H]2[C@H]3Cc4ccc(OC)c5c4[C@@]2(CCN3C)[C@H]1O5` [DDI-HC, Asp-Asp-Ile-Hydrocodone] the “hydrocodone plus hydromorphone concentration” value ([1]; 5 Minutes) was 281 ng/mL, the “hydrocodone plus hydromorphone concentration” value ([1]; 15 Minutes) was 121 ng/mL and the “hydrocodone plus hydromorphone concentration” value ([1]; 30 Minutes) was 64 ng/mL. The “hydrocodone plus hydromorphone concentration” value ([1]; 60 Minutes) was 16 ng/mL, the “AUC (ng/ml h) 0-1 h” value [1] was 88 ng·h/mL and the Cmax [1] was 281 ng/mL. The “Percent HC (AUC)” value [1] was 31%, the “Percent HC (Cmax)” value [1] was 51% and the “Percent Decrease 1 mg/kg vs. 5 mg/kg AUC” value [2] was 9%. For the same molecule, the “Percent Decrease 1 mg/kg vs. 5 mg/kg Cmax” value [2] was 9%, the “hydrocodone plus hydromorphone concentration” value ([2]; 1 mg/kg dose, 0.5 Hours) was 14.9 ng/mL and the “hydrocodone plus hydromorphone concentration” value ([2]; 1 mg/kg dose, 1.5 Hours) was 5 ng/mL. The “hydrocodone plus hydromorphone concentration” value ([2]; 1 mg/kg dose, 3 Hours) was 0 ng/mL, the “hydrocodone plus hydromorphone concentration” value ([2]; 1 mg/kg dose, 5 Hours) was 0 ng/mL and the “hydrocodone plus hydromorphone concentration” value ([2]; 1 mg/kg dose, 8 Hours) was 0 ng/mL. For the same molecule, the “AUC (ng/ml h) 0-8 h” value ([2]; 1 mg/kg dose) was 17.4 ng·h/mL, the Cmax ([2]; 1 mg/kg dose) was 14.9 ng/mL and the “Percent HC (AUC)” value ([2]; 1 mg/kg dose) was 124%. The “Percent HC (Cmax)” value ([2]; 1 mg/kg dose) was 173%, the “hydrocodone plus hydromorphone concentration” value ([2]; 5 mg/kg dose, 0.5 Hours) was 115 ng/mL and the “hydrocodone plus hydromorphone concentration” value ([2]; 5 mg/kg dose, 1.5 Hours) was 19 ng/mL. For the same molecule, the “hydrocodone plus hydromorphone concentration” value ([2]; 5 mg/kg dose, 3 Hours) was 11 ng/mL, the “hydrocodone plus hydromorphone concentration” value ([2]; 5 mg/kg dose, 5 Hours) was 4 ng/mL and the “hydrocodone plus hydromorphone concentration” value ([2]; 5 mg/kg dose, 8 Hours) was 3.1 ng/mL. For the same molecule, the “AUC (ng/ml h) 0-8 h” value ([2]; 5 mg/kg dose) was 145 ng·h/mL, the Cmax ([2]; 5 mg/kg dose) was 115 ng/mL and the “Percent HC (AUC)” value ([2]; 5 mg/kg dose) was 113%. For the same molecule, the “Percent HC (Cmax)” value ([2]; 5 mg/kg dose) was 158% and the “Peak levels and bioavailability” value [2] was “substantially decreased”.

With `CC(Cc1ccccc1)NC(=O)C(N)CCC(=O)O` (centres unmarked) [E-Amp] the “Percent AUC” value [3] was 73% and the “Percent Cmax” value [3] was 95%.

With `CC(Cc1ccccc1)NC(=O)[C@H](CCC(=O)O)NC(=O)[C@@H](N)CCC(=O)O` (some centres unmarked) [EE-Amp] the “Percent AUC” value [3] was 26% and the “Percent Cmax” value [3] was 74%.

For `CC(Cc1ccccc1)NC(=O)[C@H](Cc1ccccc1)NC(=O)[C@H](CCC(=O)O)NC(=O)[C@@H](N)CCC(=O)O` (some centres unmarked) [EEF-Amp], the “Percent AUC” value [3] was 42% and the “Percent Cmax” value [3] was 73%.

In the case of `COc1ccc2c3c1O[C@H]1C(OC(=O)[C@H](Cc4ccccc4)NC(=O)[C@H](Cc4ccccc4)NC(=O)[C@H](Cc4ccccc4)NC(=O)[C@H](CCC(=O)O)NC(=O)[C@@H](N)CCC(=O)O)=CC[C@H]4[C@@H](C2)N(C)CC[C@]314` [EEFFF[SEQ ID NO: 3]-HC, Glu-Glu-Phe-Phe-Phe[SEQ ID NO: 3]-Hydrocodone] (H-EEFFF-X1), the “hydrocodone plus hydromorphone concentration” value ([4]; 5 Minutes) is reported as 135 ng/mL, the “hydrocodone plus hydromorphone concentration” value ([4]; 15 Minutes) is reported as 77 ng/mL and the “hydrocodone plus hydromorphone concentration” value ([4]; 30 Minutes) is reported as 140 ng/mL. For the same molecule, the “hydrocodone plus hydromorphone concentration” value ([4]; 60 Minutes) was 85 ng/mL, the “AUC (ng/ml h) 0-1 h” value [4] was 107 ng·h/mL and the Cmax [4] was 135 ng/mL. For the same molecule, the “Percent HC (AUC)” value [4] was 62%, the “Percent HC (Cmax)” value [4] was 75% and the “hydrocodone plus hydromorphone concentration” value ([1]; 5 Minutes) was 34 ng/mL. The “hydrocodone plus hydromorphone concentration” value ([1]; 15 Minutes) was 21 ng/mL, the “hydrocodone plus hydromorphone concentration” value ([1]; 30 Minutes) was 24 ng/mL and the “hydrocodone plus hydromorphone concentration” value ([1]; 60 Minutes) was 15 ng/mL. The “AUC (ng/ml h) 0-1 h” value [1] was 21 ng·h/mL, the Cmax [1] was 34 ng/mL and the “Percent HC (AUC)” value [1] was 14%. For the same molecule, the “Percent HC (Cmax)” value [1] was 13%, the “hydrocodone plus hydromorphone concentration” value ([2]; 1 mg/kg dose, 0.5 Hours) was 11.3 ng/mL and the “hydrocodone plus hydromorphone concentration” value ([2]; 1 mg/kg dose, 1.5 Hours) was 4.1 ng/mL. For the same molecule, the “hydrocodone plus hydromorphone concentration” value ([2]; 1 mg/kg dose, 3 Hours) was 1.2 ng/mL, the “hydrocodone plus hydromorphone concentration” value ([2]; 1 mg/kg dose, 5 Hours) was 1.2 ng/mL and the “hydrocodone plus hydromorphone concentration” value ([2]; 1 mg/kg dose, 8 Hours) was 1.2 ng/mL. The “AUC (ng/ml h) 0-8 h” value ([2]; 1 mg/kg dose) was 20.7 ng·h/mL, the Cmax ([2]; 1 mg/kg dose) was 11.3 ng/mL and the “Percent HC (AUC)” value ([2]; 1 mg/kg dose) was 108%. For the same molecule, the “Percent HC (Cmax)” value ([2]; 1 mg/kg dose) was 119%.

With `CC[C@H](C)[C@H](NC(=O)[C@H](Cc1ccccc1)NC(=O)[C@H](Cc1ccccc1)NC(=O)[C@H](CCC(=O)O)NC(=O)[C@@H](N)CCC(=O)O)C(=O)OC1=CC[C@H]2[C@H]3Cc4ccc(OC)c5c4[C@@]2(CCN3C)[C@H]1O5` [EEFFI[SEQ ID NO: 5]-HC, Glu-Glu-Phe-Phe-Ile[SEQ ID NO: 5]-Hydrocodone] (H-EEFFI-X1) the “hydrocodone plus hydromorphone concentration” value ([4]; 5 Minutes) was 89 ng/mL, the “hydrocodone plus hydromorphone concentration” value ([4]; 15 Minutes) was 76 ng/mL and the “hydrocodone plus hydromorphone concentration” value ([4]; 30 Minutes) was 78 ng/mL. For the same molecule, the “hydrocodone plus hydromorphone concentration” value ([4]; 60 Minutes) was 66 ng/mL, the “AUC (ng/ml h) 0-1 h” value [4] was 66 ng·h/mL and the Cmax [4] was 89 ng/mL. For the same molecule, the “Percent HC (AUC)” value [4] was 38%, the “Percent HC (Cmax)” value [4] was 44% and the “Percent Decrease 1 mg/kg vs. 5 mg/kg AUC” value [2] was 70%. For the same molecule, the “Percent Decrease 1 mg/kg vs. 5 mg/kg Cmax” value [2] was 65%, the “hydrocodone plus hydromorphone concentration” value ([2]; 1 mg/kg dose, 0.5 Hours) was 12.9 ng/mL and the “hydrocodone plus hydromorphone concentration” value ([2]; 1 mg/kg dose, 1.5 Hours) was 5.2 ng/mL. For the same molecule, the “hydrocodone plus hydromorphone concentration” value ([2]; 1 mg/kg dose, 3 Hours) was 4.2 ng/mL, the “hydrocodone plus hydromorphone concentration” value ([2]; 1 mg/kg dose, 5 Hours) was 0 ng/mL and the “hydrocodone plus hydromorphone concentration” value ([2]; 1 mg/kg dose, 8 Hours) was 1.6 ng/mL. The “AUC (ng/ml h) 0-8 h” value ([2]; 1 mg/kg dose) was 25.8 ng·h/mL, the Cmax ([2]; 1 mg/kg dose) was 12.9 ng/mL and the “Percent HC (AUC)” value ([2]; 1 mg/kg dose) was 135%. For the same molecule, the “Percent HC (Cmax)” value ([2]; 1 mg/kg dose) was 136%, the “hydrocodone plus hydromorphone concentration” value ([2]; 5 mg/kg dose, 0.5 Hours) was 44 ng/mL and the “hydrocodone plus hydromorphone concentration” value ([2]; 5 mg/kg dose, 1.5 Hours) was 6.5 ng/mL. For the same molecule, the “hydrocodone plus hydromorphone concentration” value ([2]; 5 mg/kg dose, 3 Hours) was 5.7 ng/mL, the “hydrocodone plus hydromorphone concentration” value ([2]; 5 mg/kg dose, 5 Hours) was 4.2 ng/mL and the “hydrocodone plus hydromorphone concentration” value ([2]; 5 mg/kg dose, 8 Hours) was 4.5 ng/mL. For the same molecule, the “AUC (ng/ml h) 0-8 h” value ([2]; 5 mg/kg dose) was 68 ng·h/mL, the Cmax ([2]; 5 mg/kg dose) was 44 ng/mL and the “Percent HC (AUC)” value ([2]; 5 mg/kg dose) was 41%. The “Percent HC (Cmax)” value ([2]; 5 mg/kg dose) was 47% and the “Peak levels and bioavailability” value [2] was “substantially decreased”.

For `CC(Cc1ccccc1)NC(=O)[C@H](Cc1ccccc1)NC(=O)[C@@H](N)Cc1ccccc1` (some centres unmarked) [FF-Amp], the “Percent AUC” value [3] was 27% and the “Percent Cmax” value [3] was 64%.

With `CC(Cc1ccccc1)NC(=O)CNC(=O)CN` (centres unmarked) [GG-Amp] the “Percent AUC” value [3] was 79% and the “Percent Cmax” value [3] was 88%.

With `CC(Cc1ccccc1)NC(=O)C(N)Cc1cnc[nH]1` (centres unmarked) [H-Amp] the “Percent AUC” value [3] was 16% and the “Percent Cmax” value [3] was 21%.
